Measurements reported in PMC3592463.
Where two headings read alike, the source gives them in different places.

T1: Tat(44-61) (UniProt P04608 44-61)
T1 chain: GISYGRKKRRQRRRAHQN

B1: JM6 (dsRNA)
RNA 1: GACUCAGUGUCAGAGUCACUG
RNA 2: CAGUGACUCUGACACUGAGUC
B2: ds21R (dsRNA)
RNA 1: AUGUGGAAAAUCUCUAGCAGU
RNA 2: ACUGCUAGAGAUUUUCCACAU

Tests used:
Hfq [1] = biological target: T2, Hfq (E. coli, UniProt P0A6X3 1-102); assay: MST
Tat(44-61) [2] = biological target: T1, Tat(44-61); assay: MST
Tat(44-61) [3] = biological target: T1, Tat(44-61); assay: MST
Hfq [4] = biological target: T2, Hfq; assay: EMSA
Hfq [5] = biological target: T2, Hfq; assay: MST; remark: listed apart in the source

T2 sequence (P0A6X3 whole entry): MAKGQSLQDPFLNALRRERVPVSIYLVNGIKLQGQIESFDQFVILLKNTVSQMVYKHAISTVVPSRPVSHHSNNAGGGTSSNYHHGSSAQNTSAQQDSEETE

| Binder | binding result (Hfq [1]) | other results |
| --- | --- | --- |
| B1 | no binding | – |
| B2 | – | Kd (Tat(44-61) [2]): 7.4 ± 0.9 µM |
| GACUCAGUGUCAGAGUCACUG (ssRNA) [J6] | no binding | – |
| AUGUGGAAAAUCUCUAGCAGU (ssRNA) [21R+] | – | Kd (Tat(44-61) [3]): 6.3 ± 0.5 µM |
| AACUCAAUGUCUUAGUUACUG (ssRNA) [J4] | binds | – |
| AAUUUAAUGUUUUAUUUAUUA (ssRNA) [J1] | – | binding result (Hfq [4]): binds |
| AAUUCAAUGUUUUAGUUACUG (ssRNA) [J3] | binds | – |
| AAUUUAAUGUUUUAGUUACUA (ssRNA) [J2] | – | binding result (Hfq [5]): binds |
